# Laboratory results: publication doi:10.1101/2021.07.02.450866
# Key:
# [1] = molecular target: GFP-K^b (free heavy chain of H-2K^b with N-terminal monomeric GFP) (murine) (UniProt P01901); assay: single-molecule co-tracking
# [2] = molecular target: isolated, soluble α3 domain of H-2K^b (recombinant) (murine) (UniProt P01901); assay: native MS
# [3] = molecular target: isolated, soluble α3 domain of H-2K^b (recombinant) (murine) (UniProt P01901); assay: SEC
# [4] = molecular target: CE3-HA-B*27:05 (HLA-B*27:05 heavy chain) (human); assay: non-reducing SDS-PAGE and Western blot of precipitated surface class I
# [5] = molecular target: HA-K^b (free heavy chain of H-2K^b with N-terminal HA tag) (murine) (UniProt P01901); assay: FRAP
substance,measurement,setting,value
GFP-K^b (free heavy chain of H-2K^b with N-terminal monomeric GFP) (from UniProt P01901 22-369) (natural protein),fraction of co-locomoting molecules,[1],3%
same,half-life (t½),[1],0.22 s
same,koff,[1],3.1 s⁻¹
same,stoichiometry N,[1],2
"isolated, soluble α3 domain of H-2K^b (recombinant) (from UniProt P01901 205-295) (domain or fragment)",stoichiometry N,[2],2
same,Kd,[3],10 to 20 µM
same,stoichiometry N,[3],2
CE3-HA-B*27:05 (HLA-B*27:05 heavy chain) (natural protein),stoichiometry N,[4],2
K^b-GFP (free heavy chain of H-2K^b with C-terminal GFP) (from UniProt P01901 22-369) (natural protein),half-time of dissociation,[5],140 s
